Measurements reported in publication PMC9293896.
Changes are numbered by the printed parent chain.

Columns and labels:
[1] = biological target: OTR-D153Y, N-terminal SNAP-tag (human) (UniProt P30559); assay: AlphaScreen or HTRF; whole-cell saturation binding; SNAP-tagged receptor on transfected HEK293T/17 cells labelled with SNAP-Lumi4-Tb; concentration range of HiLyte Fluor 488-Orn8 oxytocin, 1 h at room temperature in 20 mM Hepes pH 7.5, 100 mM KCl, 3 mM MgCl2, 0.05% BSA; nonspecific binding with 1000-fold excess of unlabelled oxytocin; one-site saturation fit
[2] = biological target: T1, truncated V1AR (residues 1-378, T378K) G337A, N-terminal SNAP-tag (human) (UniProt P37288); assay: as above
T1 sequence: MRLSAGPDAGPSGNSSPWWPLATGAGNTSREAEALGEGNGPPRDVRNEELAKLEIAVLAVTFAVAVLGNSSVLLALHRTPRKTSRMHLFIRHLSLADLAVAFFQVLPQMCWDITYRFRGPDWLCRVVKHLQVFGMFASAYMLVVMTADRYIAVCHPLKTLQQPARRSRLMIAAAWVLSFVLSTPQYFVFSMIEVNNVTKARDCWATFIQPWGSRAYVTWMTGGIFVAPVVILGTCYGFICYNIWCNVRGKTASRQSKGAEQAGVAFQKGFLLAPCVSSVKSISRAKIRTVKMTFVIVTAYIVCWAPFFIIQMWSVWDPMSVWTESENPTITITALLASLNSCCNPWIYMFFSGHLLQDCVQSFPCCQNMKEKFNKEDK

[3] = biological target: OTR A318G, N-terminal SNAP-tag (human) (UniProt P30559); assay: as above
[4] = biological target: T2, truncated V1AR (residues 1-378 with C-terminal mutation T378K), N-terminal SNAP-tag (human) (UniProt P37288); assay: as above
T2 sequence: T1 sequence with A337G

[5] = biological target: wild-type human oxytocin receptor, full length, N-terminal SNAP-tag (human) (UniProt P30559); assay: as above
[6] = biological target: OTR-D153Y, N-terminal SNAP-tag (human) (UniProt P30559)
[7] = biological target: OTR L316A, N-terminal SNAP-tag (human) (UniProt P30559)
[8] = biological target: OTR Q171N, N-terminal SNAP-tag (human) (UniProt P30559)
[9] = biological target: OTR Q295A, N-terminal SNAP-tag (human) (UniProt P30559)
[10] = biological target: OTR Q92A, N-terminal SNAP-tag (human) (UniProt P30559)
[11] = biological target: T1, truncated V1AR (residues 1-378, T378K) G337A, N-terminal SNAP-tag (human)
[12] = biological target: OTR K116A, N-terminal SNAP-tag (human) (UniProt P30559)
[13] = biological target: OTR Q96A, N-terminal SNAP-tag (human) (UniProt P30559)
[14] = biological target: OTR W188A, N-terminal SNAP-tag (human) (UniProt P30559)
[15] = biological target: OTR F175A, N-terminal SNAP-tag (human) (UniProt P30559)
[16] = biological target: OTR F291A, N-terminal SNAP-tag (human) (UniProt P30559)
[17] = biological target: OTR A318G, N-terminal SNAP-tag (human) (UniProt P30559)
[18] = biological target: OTR Q171A, N-terminal SNAP-tag (human) (UniProt P30559)
[19] = biological target: T2, truncated V1AR (residues 1-378 with C-terminal mutation T378K), N-terminal SNAP-tag (human)
[20] = biological target: OTR Q119A, N-terminal SNAP-tag (human) (UniProt P30559)
[21] = biological target: OTR F292A, N-terminal SNAP-tag (human) (UniProt P30559)
[22] = biological target: OTR I201A, N-terminal SNAP-tag (human) (UniProt P30559)
[23] = biological target: wild-type human oxytocin receptor, full length, N-terminal SNAP-tag (human) (UniProt P30559)

Sequence of oxytocin (P01178 whole entry, looked up, the tested form may be a part): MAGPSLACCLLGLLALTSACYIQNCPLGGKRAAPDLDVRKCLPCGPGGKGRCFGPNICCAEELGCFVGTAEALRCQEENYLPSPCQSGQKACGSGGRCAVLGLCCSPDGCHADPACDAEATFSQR

HiLyte Fluor 488-Orn^8 oxytocin (from UniProt P01178 20-28) (peptide)
Kd [1]: 6.4 nM
Kd [2]: 20.9 nM
Kd [3]: 0.9 nM
Kd [4]: 9.3 nM
Kd [5]: 1.4 nM

oxytocin (from UniProt P01178 20-28) (peptide)
OT-induced IP1 accumulation (HTRF IP-One) in transfected HEK293T cells, EC50 [6]: 42.9 nM
OT-induced IP1 accumulation (HTRF IP-One) in transfected HEK293T cells, EC50 [7]: 21.9 nM
OT-induced IP1 accumulation (HTRF IP-One) in transfected HEK293T cells, EC50 [8]: 39.1 nM
OT-induced IP1 accumulation (HTRF IP-One) in transfected HEK293T cells, EC50 [9]: 51.3 nM
OT-induced IP1 accumulation (HTRF IP-One) in transfected HEK293T cells, EC50 [10]: 222 nM
OT-induced IP1 accumulation (HTRF IP-One) in transfected HEK293T cells, EC50 [11]: 250 nM
OT-induced IP1 accumulation (HTRF IP-One) in transfected HEK293T cells, EC50 [12]: 6.1 nM
OT-induced IP1 accumulation (HTRF IP-One) in transfected HEK293T cells, EC50 [13]: 1540 nM
OT-induced IP1 accumulation (HTRF IP-One) in transfected HEK293T cells, EC50 [14]: 156 nM
OT-induced IP1 accumulation (HTRF IP-One) in transfected HEK293T cells, EC50 [15]: 3.48 µM
OT-induced IP1 accumulation (HTRF IP-One) in transfected HEK293T cells, EC50 [16]: 542 nM
OT-induced IP1 accumulation (HTRF IP-One) in transfected HEK293T cells, EC50 [17]: 4.6 nM
OT-induced IP1 accumulation (HTRF IP-One) in transfected HEK293T cells, EC50 [18]: 992 nM
OT-induced IP1 accumulation (HTRF IP-One) in transfected HEK293T cells, EC50 [19]: 158 nM
OT-induced IP1 accumulation (HTRF IP-One) in transfected HEK293T cells, EC50 [20]: 444 nM
OT-induced IP1 accumulation (HTRF IP-One) in transfected HEK293T cells, EC50 [21]: 6.1 nM
OT-induced IP1 accumulation (HTRF IP-One) in transfected HEK293T cells, EC50 [22]: 89.5 nM
OT-induced IP1 accumulation (HTRF IP-One) in transfected HEK293T cells, EC50 [23]: 8.4 nM
